Results as given in the supplement of paper PMC9170038.

System: MS2 coat protein
Assay: apparent KD of MS2 coat protein; designed switch direction (-1 OFF switch, 1 ON switch): 1; higher = weaker reporter binding
Outline: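 The apparent KD reported per design is the median over clusters of curve fits to normalised cluster fluorescence. The RNA switches were transcribed on Illumina chips by stalled E. coli RNA polymerase. SNAP-549-labelled MS2 coat protein was titrated from 0.7 or 1.5 nM, doubling up to 3 µM, in Tris-HCl pH 7.5 buffer containing KCl, MgCl2, BSA, DTT, tRNA and Tween-20, with no input, 200 uM small-molecule ligand, or an oligonucleotide input.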

[1] = Eterna round: R95, input ligand: FMN 200 uM
[2] = Eterna round: R95, input ligand: microRNA oligo, concentration not stated
[3] = Eterna round: R95, input ligand: none
[4] = input ligand: microRNA oligo, concentration not stated

| Sequence | apparent KD of MS2 coat protein [1] | apparent KD of MS2 coat protein [2] | apparent KD of MS2 coat protein [3] | apparent KD of MS2 coat protein (input ligand: FMN 200 uM) | apparent KD of MS2 coat protein [4] | apparent KD of MS2 coat protein (input ligand: none) |
| --- | --- | --- | --- | --- | --- | --- |
| AAGGGAUGAGCGUAGGAUAUAGGAGAAGUGACAUGAGGAUCACCCAUGUAGGAGGAGGGAUGAGACUAGAAGGACGAGGUAGGAG [JR_SS2_Sub060] (puzzle: Same State 2) | 43.6 nM | 56.7 nM | 76.8 nM | – | – | – |
| GAGUUACAUGAGGAUCACCCAUGUUGUUGUGGAUAAGGAUAUAUGGUAGGAAGAGGAAUGAUAGAAGGUAUUAGGG [JR_SS1_Sub064] (puzzle: Same State 1) | – | 34.7 nM | – | – | – | – |
| GCUCGAUGAUAGGCCUACAUGAGGAUCACCCAUGUAAGUGGGCAGGAUAUCUACAUGCAGAAUGUAGAGAAGGGCCCGUCGAGC [SameState NG3 #55] (Eterna round: R96, puzzle: Same State NG 3) | – | – | – | 20.5 nM | 66 nM | 83.9 nM |
| UUAAUUAUGUAAGGAUAUACAUGAGGAUUUCUCGUAGAAGGUACAUUACAUGAGGAUCACCCAUGUAGGUGUCCGUAGACGCCA [JL SSNG1 1.07] (Eterna round: R96, puzzle: Same State NG 1) | – | – | – | 142 nM | 78.3 nM | 129 nM |
| AUUACUAACAUAGGAUAUCAUGCGAAAAUUGCGUGAGAAGGGUGGACACUGUCAUUCUCGGAGCACAUGAGGAUCACCCAUGUG [SameState NG1 #70] (Eterna round: R96, puzzle: Same State NG 1) | – | – | – | 80.6 nM | 42.4 nM | 59 nM |
| ACAUGAGACCGAGGAUAUUUUGUACCUACAUGUGACAUGAGGAUCACCCAUGUGGUAAGUAUGAGAAAGAAGGCGGAGAUAUGU [Equivalence 20 - Jieux - Same State NG 2] (Eterna round: R96, puzzle: Same State NG 2) | – | – | – | 22.4 nM | 24.8 nM | 32.6 nM |
| GCCAACUCAUGAGGAUAUGGCACCUUAUUGGUGCCAGAAGGCAUGUCAAUUGACAUGAGGAUCACCCAUGUAUUAUAGUUGGCA [Fiskers NG1ss - 22] (Eterna round: R96, puzzle: Same State NG 1) | – | – | – | 62.5 nM | 267 nM | 489 nM |
| GAGAGAGGGCGAGGAUAUUCGGUGAUAAUGAUGGAAGAAGGCGCAGACAUGAGGAUCACCCAUGUGGGAAUAAUCCAGAGAGAG [Parity 14 - Jieux - Same State NG 1] (Eterna round: R96, puzzle: Same State NG 1) | – | – | – | 206 nM | 101 nM | 131 nM |
| GUUAAACAUGAGGAUCACCCAUGUAAUAUAAUGGGAGGAUAUCUGAAUUAAUUAAAUUAAGGAGAAGGCCUAAUUG [Mat - Same State 1 - Mod of Eli - D52] (puzzle: Same State 1) | 42 nM | 181 nM | 255 nM | – | – | – |
| AUAAAACAUGAGGAUCACCCAUGUCAACAAAGUCGAGGAUAUUGGCAAAUAAAAUAAGAACCAGAAGGCGAAUAAU [salish99_ss1_r3_050] (puzzle: Same State 1) | 17.5 nM | 23.1 nM | 23.4 nM | – | – | – |
| UGGAUCUAGGCUUGCCUGGGUCCAUGUUGACAUGAGGAUCACCCAUGUGUAUUUUUUUUGCUUUUUGUUUGUCAACA [JL A Humble Attempt mod 4] (puzzle: Sensor for hsa-mir-208a) | 31.5 nM | 16.7 nM | 34 nM | – | – | – |
| GUGGUCAGACAUGAGGAUCACCCAUGUGGAAUAAAUAAGGAGAAGGAUAUUAAAUAUAGGAUAUAUAAGAAGGUCUGGUUGGUG (Eterna round: R96, puzzle: Same State NG 3) | – | – | – | – | 65.2 nM | – |
| UCGUCGACACAAAUUCGACAACAUGAGGAUCACCCAUGUCCACAGGAUAUCGGCAGCUUAUGCUCCGAGAAGGGUGGUUAGAUU [Beage Mod] (Eterna round: R96, puzzle: Same State NG 3) | – | – | – | 435 nM | 664 nM | 605 nM |
| AAUAUACAUGAGGAUCACCCAUGUUAGUAAAUGACAGGAUAUCGAAUAAAUAAAUAAUAACGAGAAGGGUCUAAUA [JMF's solution 3] (puzzle: Same State 1) | 15.9 nM | 30.3 nM | 20.8 nM | – | – | – |
| AACAAUCUAUCUCAGGAUAUCAUGUCAAAGACAUGAGGAUCACCCAUGUACCAGGAAACUGGUUAUGAGAAGGGAGAUAGAUUGG [Mat - Same State 2 - Mod - D28] (puzzle: Same State 2) | 161 nM | 438 nM | 197 nM | – | – | – |
| AACGGCAGAUGAGGAUAUACUUGCCAUGCGAGCACGCUCGCUACAUGAGGAUCACCCAUGUAUGGGUAGAAGGCAUCAUGAUAC [Eternabot solution 39] (Eterna round: R96, puzzle: Same State NG 2) | – | – | – | 89.6 nM | 102 nM | 243 nM |

| Sequence | apparent KD of MS2 coat protein [1] | apparent KD of MS2 coat protein [2] | apparent KD of MS2 coat protein [3] | apparent KD of MS2 coat protein (input ligand: FMN 200 uM) | apparent KD of MS2 coat protein [4] | apparent KD of MS2 coat protein (input ligand: none) |
| --- | --- | --- | --- | --- | --- | --- |
| UUUACAUUACGAGGAUAUCAUUUAUUUCAUGUUUGAGAAGGCGUUUUUUUUAUUACCUUACAUGAGGAUCACCCAUGUUUCUUU [JR_SSNG1_Sub043] (Eterna round: R96, puzzle: Same State NG 1) | – | – | – | – | 26.2 nM | – |
| GCAGGACGAUAAUAUAUCUCACAUGAGGAUCACCCAUGUCGUGAGGAUAUGGAUCCUAAUUGGAUCCAGAAGGCAUGGUCCUGC [Fiskers NG3ss - 31] (Eterna round: R96, puzzle: Same State NG 3) | – | – | – | 18.5 nM | 14.2 nM | 20.7 nM |
| GCAGGACAUGAGGAUCACCCAUGUCUCAAAUAUUGAGGAUAUGGACACGGUAUAUCCGAACCAGAAGGCAACCUGC [SS1 Teenbexe 20] (Eterna round: R96, puzzle: Same State 1) | – | – | – | 38.9 nM | 31.5 nM | 43.7 nM |
| UUUAUUAAUAUAGGAUAUGUAAAACAUGAGGAUCACCCAUGUGAUAUCGUGAGUAAGGAGAGAGAACAGAAGGAUAAUUUUUUU [JMF's solution 2] (Eterna round: R96, puzzle: Same State NG 2) | – | – | – | 39.7 nM | 35.1 nM | 32.5 nM |
| UUGGUUGUCGUAGGAUAUGUAGGAUAUUCCUACAUGAGGAUCACCCAUGUUCGCAUGGAAGAAGGACAGAAGGACGAUGACCAU [pwkr ssNG2 2FMN + 1F5.20] (Eterna round: R96, puzzle: Same State NG 2) | – | – | – | 16.8 nM | 904 nM | 836 nM |
| GGAGCCGGUACUGAGGAUAUUCAUAUUAAAACAUGAGGAUCACCCAUGUAGGCCAGAAGGCCUUGGGAGAAGGCAGAUCGGCUCC [Biceusra] (Eterna round: R96, puzzle: Same State 2) | – | – | – | 19 nM | 132 nM | 233 nM |
| AUCCUAAACACAGGAUAUCCCAGUCAUGAUCUGGGAGAAGGGUGGCCACAUGAGGAUCACCCAUGUGAAGUGCCAGAGGCACGA [MOD3 Xexeraed] (Eterna round: R96, puzzle: Same State NG 1) | – | – | – | 397 nM | 359 nM | 582 nM |
| CGAUGAUACUUAGGAAAGAGAGUAGAGGAACAUGAGGAUCACCCAUGUAUGAGCUUUUUGCUCGUCAUGAACAGGAA [JR_SHM208a_Sub008] (puzzle: Sensor for hsa-mir-208a) | 88.6 nM | 62.4 nM | 168 nM | – | – | – |
| AAAAGACAAAGAAAACAUGAGGAUCACCCAUGUGGCGUGACACAGGAUAUCCACGCUACAUUGCAGGAGAAGGGUGACAUGCAC [Ensora] (Eterna round: R96, puzzle: Same State NG 3) | – | – | – | 484 nM | 273 nM | 383 nM |
| GUAAAACAUGAGGAUCACCCAUGUCAUCUAAGUCGAGGAUAUGGGAAUUAAUUAAUUAAACCAGAAGGCGAAAUUG [Mat - Same State 1 - D97] (puzzle: Same State 1) | 44.6 nM | 844 nM | 606 nM | – | – | – |
| UCUUGGUUUUUGCUCGUUUUUUGUGUUGAACAUGAGGAUCACCCAUGUAUUGUACGGUCCGGUUUGGUAAUGGUCCA [JMF 9] (puzzle: Sensor for hsa-mir-208a) | 55.7 nM | 41.8 nM | 63.6 nM | – | – | – |
| GUACAGAUCACAGGAUAUCACGUCGUUUAGACGUGAGAAGGGUGAUCACACAUGAAUAUUAAUACAUGAGGAUCACCCAUGUAC [SSNG1/16-A3] (Eterna round: R96, puzzle: Same State NG 1) | – | – | – | – | 22.1 nM | – |
| UAGAGAGGAAGCGAGGAUAUCGUGUGAGGAACAUGAGGAUCACCCAUGUGUGAUGUUGAGAGAGACGAGAAGGCGCAGGAGAUUA [JR_SS2_Sub083] (puzzle: Same State 2) | 87.5 nM | 150 nM | 140 nM | – | – | – |
| CCGAUGUGGGUACAGGAUAUGUGGGCCUCCACAUGAGGAUCACCCAUGUCGGAGGCAAAGCGGCUACAGAAGGGUGCGAGCUCGA [Xeanza] (puzzle: Same State 2) | – | 9.28 nM | – | – | – | – |
| CGUCCGGCCUGAGCUGGACGGAAGCUUGUACAUGAGGAUCACCCAUGUUCAUGUGCAGGCUUUUUGCUCGUCUUGUG [salish99_mir208a_modof_jandersonlee] (puzzle: Sensor for hsa-mir-208a) | 19.8 nM | 18.8 nM | 23.4 nM | – | – | – |
| AGAGCCGGCACUGAGGAUAUUCAUAAUAAAACAUGAGGAUCACCCAUGUAGGCCAGAAGGCCUUGGGAGAAGGCAGGUCGGCUCU [Mat - Same State 2 - Mod of UCT - D69] (puzzle: Same State 2) | 17.7 nM | 168 nM | 220 nM | – | – | – |
